# Assay results published in patent US9931373B2, “Method of reducing cancer cell proliferation by administering recombinant alpha-fetoprotein” (priority 2005, dated 2018).
# Legend:
# [1] = system: Human Umbilical Vein Endothelial Cells (HUVEC); experiment: Wound healing assay with HUVEC; format: cell-based; settings: serum-free medium, 50 μg/ml rhAFP, 18 hrs; HSA as control
# Method: HUVECs were plated onto the gelatin-coated 24-well plates, and grown for confluence. Than monolayers were wounded by scrapper, and cells were incubated in the serum-free medium with 0.1-0.5 mg/ml of rhAFP or HSA.
# To test ability of rhAFP to stimulate regeneration of damaged tissue we established classical wound healing assay with normal Human Umbilical Vein Endothelial Cells (HUVEC) obtained after surgical resection of human vein tissue. HUVEC cells were cultivated in DMEM/F12 medium with addition 10% FBS and 0.1% ECGF on the 60 mm Petri dishes at 37° C. at 5% CO2 atmosphere. HUVECs were plated on gelatin-coated 24-well plates, and grown for confluence, than monolayers were wounded and cells were incubated in serum-free medium with 50 μg/ml rhAFP or 50 μg/ml HSA, healing was observed after 18 hrs incubation. Images of wound healing were taken after staining with crystal violet.
# [2] = system: syngeneic leukemia cells P388; experiment: Syngeneic acute leukemia P388 in BDF1 mice, survival over 30 days; format: in vivo; settings: rhAFP 25.0 mg/kg
# Excerpt: We have studied the effect of combined treatment with AFP+Dox of acute leukemia in mice BDF1 with transplanted intrapleurally syngeneic P388 leukemia cells. BDF-1 mice (84 male, 28 mice per treatment) were implanted with lethal dose of 12×10^6 syngeneic leukemia cells P388 in the pleural region. Animals were subjected to monotherapy with Dox and combined therapy with rhAFP/Dox upon simultaneous single injection of drugs in various doses. Animal survival was compared over 30 days.
# [3] = system: human hepatoma cells HepG2; experiment: Human hepatoma xenografts in Nude mice, rhAFP monotherapy; format: in vivo, Balb C/Nude mice
# Method: To study tumor-suppression upon monotherapy with rhAFP we used in vivo model of human hepatoma xenografts in Nude mice. Balb C/Nude mice 8/group were implanted with 12×10^6 human hepatoma cells HepG2 s/c. rhAFP 10 mg/kg was injected i/p 9 times each 48 hrs during 16 days. Effectiveness of treatment was assessed by measuring and weighting of the tumor at the 30th day of experiment and by comparison of the quantity of mice with tumor during time of observation.
# [4] = system: cells of B-cellular lymphoma Raji; experiment: Suppression of growth of Raji cells in vitro, [H3]-thymidine incorporation; format: cell-based, human; settings: 12 hours with AFP, dose-dependent, FIG. 5
# Method: The functional activity of rAFP and the modified forms thereof were determined according to its capability of suppressing the growth of cells of B-cellular lymphoma Raji in the culture in vitro, as earlier described (Semenkova, L. 1997, Tumor Biol. 18, 261-274; Dudich E. I., et al., 1998, Tumor Biol. 198, 30-40). Preliminarily washed by a fresh medium, Raji cells were placed into each cell of a 96-alverolar plate according to 5×10^3 in 0.1 ml of a medium RPMI-1640 in the presence of a 10% fetal calf serum, then different doses of AFP were added for 12 hours. Proliferation of the cells was measured by a standard method by the introduction of [H^3]-thymidine during the last 4 hours of culturing. For comparison, the dose-dependent reactivity was studies for two samples of AFP of embryonal origin embrAFP and yeast rAFP (FIG. 5). […] Similarly, in order to determine the activity to preparations on the base of AFP in vitro, any other lines of cancer cells may be used that are sensitive to the suppressive action of AFP, such as human hepatocarcinoma HepG2, breast cancer MCF-7, prostate cancer LnCap, myeloblastoma U-937 and others (Semenkova, L. 1997, Tumor Biol. 18, 261-274; Dudich E. I., et al., 1998, Tumor Biol. 198, 30-40).
# [5] = system: embryonal fibroblasts of the lung and human retina; experiment: Growth of primary culture of human embryonal fibroblasts, [H3]-thymidine; format: cell-based; settings: 24 hours, FIG. 7
# Method: Proliferation of the cells was measured by a standard method of [H^3]-thymidine incorporation during the last four hours of culture and expressed in percent of the stimulation of growth in test cultures in respect of a control without AFP.
# The primary culture of embryonal fibroblasts of the lung and human retina was obtained by treating with 0.25% trypsin solution corresponding tissues of 5-10 week embryos obtained after legal abortions. The cells were cultures in an RPMI-1640 medium in the presence of a 10% calf fetal serum (CFS). The cytostatic activity of AFP was measured as earlier described (Semenkova, L. 1997, Tumor Biol. 18, 261-274; Dudich E. I., et al., 1998, Tumor Biol. 198, 30-40). Cells in an amount of 4×10^4 in a 0.15 ml medium were intensively washed with a fresh to medium and placed in each cell of a 96-lune plate, then different doses of AFP were added and cultures 24 hours. Proliferation of the cells was measured by a standard method by the inclusion of [H^3]-thymidine during the last four hours of culturing.
# [6] = system: human hepatoma cells HepG2; experiment: Treatment of HepG2 cells in vitro with rhAFP; format: cell-based
# Method: Results: Without treatment, tumors were determined at 5th-7th day after transplantation.
# [7] = system: PHA-activated CBA thymocytes; experiment: PHA-mediated thymocyte proliferation in vitro; format: cell-based, mouse CBA; settings: AFP alone, 24 hrs after 48 hrs PHA 1.5 μg/ml
# resting mouse T-cells = experiment: Control resting splenocytes / resting T-cells treated with rhAFP/CsA; format: cell-based, mouse (CBA)
# Method: Control resting splenocytes CBA were treated for the same time with combination of rhAFP/CysA (FIG. 10C). Cytostatic effects were assessed by monitoring of cell proliferation by [^3H]-thymidine incorporation.
molecule,measurement,setting,value
"rhAFP: recombinant human alpha-fetoprotein secreted by yeast Saccharomyces cerevisiae YBS723/pKX, glycosylated, mature human AFP sequence SEQ ID NO:2 (protein, listed as Homo sapiens, yeast glycosylation) TLHRNEYGIASILDSYQCTAEISLADLATIFFAQFVQEATYKEVSKMVKDALTAIEKPTGDEQSSGCLENQLPAFLEELCHEKEILEKYGHSDCCSQSEEGRHNCFLAHKKPTPASIPLFQVPEPVTSCEAYEEDRETFMNKFIYEIARRHPFLYAPTILLWAARYDKIIPSCCKAENAVECFQTKAATVTKELRESSLLNQHACAVMKNFGTRTFQAITVTKLSQKFTKVNFTEIQKLVLDVAHVHEHCCRGDVLDCLQDGEKIMSYICSQQDTLSNKITECCKLTTLERGQCIIHAENDEKPEGLSPNLNRFLGDRDFNQFSSGEKNIFLASFVHEYSRRHPQLAVSVILRVAKGYQELLEKCFQTENPLECQDKGEEELQKYIQESQALAKRSCGLFQKLGEYYLQNAFLVAYTKKAPQLTSSELMAITRKMAATAATCCQLSEDKLLACGEGAADIIIGHLCIRHEMTPVNPGVGQCCTSSYANRRPCFSSLVVDETYVPPAFSDDKFIFHKDLCQAQGVALQTMKQEFLINLVKQKPQITEEQLEAVIADFSGLLEKCCQGQEQEVCFAEEGQKLISKTRAALGV",migration of HUVEC to the wounded area,[1],significantly activated the migration of HUVEC to the wounded area
same,Survival more 30 days,[2],0
same,T/C %,[2],118%
same,"T (survival, days)",[2]; single injection,[15.7/21.8] 7.7 [6.4/ days
same,tumor growth in the period of treatment,[3]; rhAFP 10 mg/kg i/p 9 times each 48 hrs during 16 days,tumors did not grow in the period of treatment
same,inhibition of total tumor weight relatively to untreated control,"[3]; rhAFP 10 mg/kg i/p 9 times each 48 hrs, tumor weighed at 30th day",90%
same,"cytostatic activity, inhibition of growth of Raji cells",[4],expressed cytostatic activity
same,stimulating effect on cellular growth in respect to the control,[5],50-90%
same,effect on HepG2 cells in vitro,[6],dose-dependent growth suppression and apoptosis
same,proliferation of PHA-stimulated thymocytes in response to AFP,[7],distinct dose-dependent growth suppression
same,suppression of resting immune cells,resting mouse T-cells; AFP as modulator of CsA-mediated signals,does not suppress resting immune cells
same,effect of rhAFP on CsA treatment of resting mouse T-cells,resting mouse T-cells; FIG. 10C,cancellation of the cytotoxic effects of CsA treatment
